Ten molecules from patent US20200347144A1 (SHANGHAI HYAMAB BIOTECH, published 2020) can be followed below.

In test [1] the target is T1, mouse 4-1BB protein (extracellular domain) (mouse, UniProt P20334 24-187).
T1 construct: extracellular domain; also called mouse 4-1BB-his; mouse 4-1BB-hFc protein
T1 sequence (looked up): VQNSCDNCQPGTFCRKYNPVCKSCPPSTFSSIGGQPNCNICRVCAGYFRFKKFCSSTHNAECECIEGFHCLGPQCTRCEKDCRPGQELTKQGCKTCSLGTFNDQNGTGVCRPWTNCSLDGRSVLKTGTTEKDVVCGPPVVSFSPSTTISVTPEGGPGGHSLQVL
The experiment in a line: ELISA, coated mouse 4-1BB; Ab 2 ug/ml. As for the experimental part: (§1) The purified immunogen A (4-1BB-hFc), monkey 4-1BB-his, and mouse 4-1BB-his obtained in Example 1 [for the preparation method, see step 1 of Example 1, preparation of immunogen A], of which the extracellular domain of monkey-derived 4-1BB protein (purchased from ACRO biosystems), the extracellular domain of mouse 4-1BB protein (purchased from sino biological) or other immune detection point proteins respectively were diluted with PBS to a final concentration of 1.0 μg/mL, then added with […] per well to 96-well ELISA plate. It was sealed with plastic film and incubated at 4° C. overnight. The next day, the plate was washed twice with the plate-washing solution [PBS containing 0.01% (v/v) Tween20] and blocking solution [PBS containing 0.01% (v/v) Tween 20 and 1% (v/v) BSA] was added and blocked at room temperature for 2 hours. The blocking solution was discarded and 100 μl of the purified 4-1BB antibody obtained in Example 2 was added per well. After incubated at 37° C. for 2 hours, the plate was washed 3 times with a plate-washing solution [PBS containing 0.01% (v/v) Tween20]. A secondary antibody (purchased from Sigma) labeled with HRP (horseradish peroxidase) was added, and after incubated at 37° C. for 2 hours, the plate was washed 3 times with a plate-washing solution [PBS containing 0.01% (v/v) Tween20]. 100 μl of TMB substrate was added per well. After incubated for 30 minutes at room temperature, 100 μl of stop buffer (1.0N HCl) was added per well. The A450 nm values were read using an ELISA plate reader (SpectraMax 384plus, Molecular Device).

For test [2], the target named is T1, mouse 4-1BB protein (extracellular …). The experiment in a line: ELISA, coated mouse 4-1BB; Ab 10 ug/ml. Here is the method:
as §1
Background: An ELISA detects its analyte on a solid surface through an enzyme-linked reagent.

Test [3] has the same target. The experiment in a line: ELISA, coated mouse 4-1BB; Ab 0.4 ug/ml. Here is the method:
as §1

Test [4] has the same target. The experiment in a line: ELISA, coated mouse 4-1BB; Ab 0.016 ug/ml. As for the experimental part: as §1
For test [5] the target is unchanged. The experiment in a line: ELISA, coated mouse 4-1BB; Ab 0.0001 ug/ml. As for the experimental part: as §1
The target is the same in test [6]. The experiment in a line: ELISA, coated mouse 4-1BB; Ab 0.0032 ug/ml. As for the experimental part:
as §1

For test [7] the target is unchanged. The experiment in a line: ELISA: mouse 4-1BB protein coated at 1.0 µg/mL (target by Table 10; the legend paragraph 119 says monkey 4-1BB-hFc), antibody titrated, HRP secondary antibody, OD450. Here is the method: as §1
In test [8] the target is T2, monkey 4-1BB-his protein (monkey).
T2 construct: extracellular domain; Bought protein; also called extracellular domain of monkey-derived 4-1BB protein
The experiment in a line: ELISA, coated monkey 4-1BB-his; Ab 2 ug/ml. As for the experimental part:
as §1

For test [9], the target named is T2, monkey 4-1BB-his protein. The experiment in a line: ELISA, coated monkey 4-1BB-his; Ab 10 ug/ml. As for the experimental part: as §1
Test [10] deals with T2, monkey 4-1BB-his protein. The experiment in a line: ELISA, coated monkey 4-1BB-his; Ab 0.4 ug/ml. As for the experimental part: as §1
Test [11] has as its target T2, monkey 4-1BB-his protein. The experiment in a line: ELISA, coated monkey 4-1BB-his; Ab 0.0001 ug/ml. Here is the method: as §1
Test [12] concerns the target T2, monkey 4-1BB-his protein. The experiment in a line: ELISA, coated monkey 4-1BB-his; Ab 0.0006 ug/ml. As for the experimental part:
as §1

Test [13] deals with T3, monkey 4-1BB on CHOK1 cells (monkey).
T3 construct: whole, on cells; also called CHOK1-c4-1BB
The experiment in a line: FACS on CHOK1-c4-1BB cells, Alexa 488 secondary antibody, average fluorescence intensity. The text has this:
The pIRES plasmid carrying the full-length gene of monkey-derived […] (the preparation method is the same as the preparation method of the pCpC vector carrying the human-derived IgG Fc fragment (hFc) in “Preparation of immunogen A” of the step (1) in Example 1, in which the database accession number of the amino acid sequence of the extracellular region of monkey 4-1BB protein (Phe19-Thr239) is G7PSE7) was transfected into CHOK1 cell line to obtain CHOK1 stable transfected cell line containing monkey 4-1BB (herein referred to as CHOK1-c4-1BB stable cell line). The CHOK1-h4-1BB stable cell line and the CHOK1-c4-1BB stable cell line were expanded and cultivated to 90% confluence in T-75 cell culture flasks. The medium was exhausted, and washed twice with HBSS buffer (Hanks Balanced Salt Solution, purchased from Invitrogen), and then the cells were treated and collected with enzyme-free cell dissociation solution (Versene solution, purchased from Life Technology). The cells were washed twice with HBSS buffer, and after cell counting, the cells were diluted with HBSS buffer to 2×10⁶ cells per ml, and 1% goat serum blocking solution was added, the percentage being the mass percentage. It was incubated on ice for 30 minutes, and then washed twice with HBSS buffer by centrifugation. The collected cells were suspended in FACS buffer (HBSS containing 1% BSA, the percentage was the mass percentage) to 2×10⁶ cells/mL, and 100 μl per well was added to a 96-well FACS reaction plate. The purified 4-1BB antibody test sample obtained in Example 2 was added, 100 microliters per well and incubated on ice for 2 hours. […] It was washed three times with FACS buffer by centrifugation, and 100 μl of fixative [4% (v/v) paraformaldehyde] per well was added to suspend cells, and washed twice with FACS buffer after 10 minutes by centrifugation. The cells were suspended with 100 microliters of FACS buffer, and the results were detected and analyzed with FACS (FACS Calibur, purchased from BD).

Test [14] addresses T2, monkey 4-1BB-his protein. The experiment in a line: ELISA: monkey 4-1BB-his coated at 1.0 µg/mL, antibody titrated, HRP secondary antibody, OD450. Here is the method:
as §1

B1: 172E3E3 (antibody, V domains shown)
VH: QVQLQESGPGLVKPSGTLSLTCAVSGGSISSSNWWSWVRQPPGKGLEWIGEIYHSGSTNYNPSLKSRVTISVDKSKNQLSLNLSSVTAADTAVYYCARQGGVAGTLYWYFDLWGRGTLVTVSS
VL: DIVMTQSPLSLPVTPGEPASISCRSSQGLLHSNGYNYLDWYLQKPGQSPQLLIYLGSNRASGVPDRFIGSGSGTDFTLKIRRVEAEDVGVYYCMQVLQTPWTFGQGTKVEIK
With B1, the OD450 nm in test [1] came out at 0.12 OD450 nm; in test [2], 0.3 OD450 nm; in test [3], 0.06 OD450 nm; in test [4], 0.05 OD450 nm; in test [5] it was 0.05 OD450 nm; in test [6], 0.05 OD450 nm. The binding result in [7] is on record as “no binding (tested: 10 µg/ml)”.

B2: 263A11E3 (antibody, V domains shown)
VH: QVQLQESGPGLVKPSETLSLTCAVSGYSISSGYYWGWIRQPPGKGLEWIGSIYHSGSTSYNPSLRSRVTISVDTSKNQFSLKLSSVTAADTAVYYCARDAGGFDYWGQGTLVTVSS
VL: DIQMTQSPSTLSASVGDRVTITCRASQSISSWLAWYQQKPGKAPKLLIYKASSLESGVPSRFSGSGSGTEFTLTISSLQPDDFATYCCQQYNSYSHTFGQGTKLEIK
In the case of B2, the OD450 nm in the test with monkey 4-1BB-his protein [8] came to 0.39 OD450 nm; in the test with monkey 4-1BB-his protein [9], 0.87 OD450 nm; in the test with monkey 4-1BB-his protein [10], 0.14 OD450 nm; in the test with monkey 4-1BB-his protein [11], 0.07 OD450 nm; with monkey 4-1BB-his protein [12] it was 0.07 OD450 nm.

B3: 289B6G6 (antibody, V domains shown)
VH: QVQLQESGPGLVRPSETLSLTCAVSGYSISSGYYWGWIRQPPGKGLEWIGSIFHSGNTYYNPSLKSRVIVSGDTSKNQFSLKLSSVTAADTAVYYCTRESSGFNVFDIWGQGTMVTVSS
VL: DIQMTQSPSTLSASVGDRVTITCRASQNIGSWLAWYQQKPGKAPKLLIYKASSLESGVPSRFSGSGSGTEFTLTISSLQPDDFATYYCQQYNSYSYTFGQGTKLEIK
The EC50 (read off the curve) is the concentration giving half of the maximal effect. For the molecule B3, the “EC50 (read off the curve)” value in [13] is about 0.2 µg/mL.

B4: 170D7F2 (antibody, V domains shown)
VH: QVQLVQSGAEVKKPGASVKVSCKASGYTFTSYDINWVRQATGQGLEWMGWMNPNSGNTGYAQKFQGRVTMTRNTSISTAYMELSSLRSEDTAVYYCARETGPFDYWGQGTLVTVSS
VL: DIQMTQSPSSLSASVGDRVTITCRASQRINNYLNWYQQKPGKAPKLLIYGASSLQSGVPSRFSGSGSGTDFTLTISSLQPEDFATYYCQQSYSTPFTFGPGTKVDIK
On to B4, for which the OD450 nm was 0.11 OD450 nm in [1]; 0.27 OD450 nm in test [2]; 0.12 OD450 nm in [3]; 0.18 OD450 nm in test [4]; 0.05 OD450 nm in test [5]; 0.14 OD450 nm in test [6]. Also, the binding result in [7] was “no binding (tested: 10 µg/ml)”.

B5: 182A5B3 (antibody, V domains shown)
VH: QVQLVQSGAEVKKPGASVKVSCKASGYTFTSYDINWVRQATGQGLEWMGWMNPNSGNTGYVQKFQGRVTMTRNTSISTAYMELSSLRSEDTAVYYCARETGPFDYWGQGTLVTVSS
VL: not shown
For B5, the “EC50 (read off the curve)” value in [13] was about 0.4 µg/mL.

B6: 119B6G5 (antibody, V domains shown)
VH: EVQLLESGGGLVQPGGSLRLSCAASGFTFSNYAMSWVRQGPGKGLEWVSTIIGSGDSTYYTDSVKGRFTISRDNSKNTLFLQMNSLRAEDTAVYYCARDKSGWYYFDYWGQGTLVTVSS
VL: DIQMTQSPSTLSASVGDRVTITCRASQSISNWLAWYQQKPGKAPKLLIYKASSLESGVPSRFSGSGSGTEFTLTISSLQPDDFATYYCQQYNDYFPITFGQGTRLEIK
For B6, the OD450 nm in the test with monkey 4-1BB-his protein [8] is 2.46 OD450 nm; in the test with monkey 4-1BB-his protein [9], 2.48 OD450 nm; in the test with monkey 4-1BB-his protein [10], 2.54 OD450 nm; in the test with monkey 4-1BB-his protein [11], 0.08 OD450 nm; with monkey 4-1BB-his protein [12] it was 0.11 OD450 nm. Also, the “EC50 (read off the curve)” value with monkey 4-1BB-his protein [14] was about 0.03 µg/mL.

B7: 118F3A2 (antibody, V domains shown)
VH: QVQLQQWGAGLLKPSETLSLTCGVYGGSFSTNYWSWIRQSPGKGLEWIGEINHSGNTEYNPSLKSRLTISIDTSKNQFSLKLTSVTAADTAVYYCARMGYHSPSFDFWGQGVLVTVSS
VL: KIVMTQSPATLSVSPGERATLPCRVSQGIGSNLAWYQQKPGQAPRLLIYGASTRATGVPARFSGSGSGSEFTLTISSLQSEDLALYYCQQYNNWPLTFGGGTKVEIK
For the molecule B7, the OD450 nm amounted to 0.12 OD450 nm in test [1]; 0.31 OD450 nm in test [2]; 0.06 OD450 nm in test [3]; 0.09 OD450 nm in [4]; 0.05 OD450 nm in test [5]; 0.11 OD450 nm in [6]. The binding result in [7] is given as “no binding (tested: 10 µg/ml)”.

B8: 258F5A8 (antibody, V domains shown)
VH: QVQLVESGGGVVQPGRSLRLSCAASGFTFSSYGMHWVRQAPGKGLEWVAVIWYDGSNKYYADSVKGRFNISRDNSKNTLYLQMNSLRAEDTAVYYCARGPYLYSSGWYDYYYYGMDVWGQGTTVTVSS
VL: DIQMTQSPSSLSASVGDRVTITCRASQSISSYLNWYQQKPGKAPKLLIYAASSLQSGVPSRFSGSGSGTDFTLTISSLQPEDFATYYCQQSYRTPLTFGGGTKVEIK
As for B8, the OD450 nm with monkey 4-1BB-his protein [8] came to 1.78 OD450 nm; with monkey 4-1BB-his protein [9], 1.98 OD450 nm; in the test with monkey 4-1BB-his protein [10] it was 1.32 OD450 nm; with monkey 4-1BB-his protein [11], 0.07 OD450 nm; in the test with monkey 4-1BB-his protein [12], 0.07 OD450 nm.

B9: 259G10E11 (antibody, V domains shown)
VH: QVQLVESGGGVVQPGRSLRLSCAASGFTFSSYGMHWVRQAPGKGLEWVAVIWYDGSNKYYADSVKGRFTISRDNSKNTLYLQMNSLRAEDTAVYYCARGPYLYSSGWYDYYYYGMDVWGQGTTVTVSS
VL: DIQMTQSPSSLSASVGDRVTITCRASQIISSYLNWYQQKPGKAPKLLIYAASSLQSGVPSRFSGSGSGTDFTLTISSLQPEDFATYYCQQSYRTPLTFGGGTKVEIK
On to B9, for which the OD450 nm in the test with monkey 4-1BB-his protein [8] worked out at 1.51 OD450 nm; in the test with monkey 4-1BB-his protein [9] it was 1.83 OD450 nm; in the test with monkey 4-1BB-his protein [10], 1.18 OD450 nm; in the test with monkey 4-1BB-his protein [11] it was 0.07 OD450 nm; in the test with monkey 4-1BB-his protein [12], 0.07 OD450 nm.

B10: 23G3B8 (antibody, V domains shown)
VH: QVQLQESGPGLVKPSETLSLTCAVSAYSISSGYYWGWIRQPPGKGLEWIGSIFHSGSNYYNPSLKSRVTISVDPSKNQFSLKLSSVTVADTAVYYCARESSGYNCFDYWGQGTLVTVSS
VL: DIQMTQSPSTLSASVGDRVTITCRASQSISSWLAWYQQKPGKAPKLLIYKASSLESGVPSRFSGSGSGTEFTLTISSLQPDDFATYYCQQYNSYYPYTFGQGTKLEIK
Take B10: the “EC50 (read off the curve)” value in test [13] was about 0.2 µg/mL.
